These results are taken from publication doi:10.1101/2023.01.27.525918 (bioRxiv, 2023).

The target in series [1] is RPA70 as the subunit of the purified recombinant RPA complex (human, UniProt P27694 1-616). Nature of the series: cross-linking.
Series [2] has as its target T1, Human RPA complex (RPA70, RPA32, RPA14), recombinant full length (human, UniProt P27694;P15927;P35244). Nature of the series: SEC.
Series [3] concerns the target ZUP1;RPA complex WT (RPA70/RPA32/RPA14) (Homo sapiens;Homo sapiens, UniProt Q96AP4;P27694;P15927;P35244 1-578;1-616;1-270;1-121, |). Nature of the series: EMSA.
Series [4] concerns the target T1, Human RPA complex (RPA70, RPA32, …). Nature of the series: pull-down.

T1 sequence (P27694 whole entry, chain 1 of 3): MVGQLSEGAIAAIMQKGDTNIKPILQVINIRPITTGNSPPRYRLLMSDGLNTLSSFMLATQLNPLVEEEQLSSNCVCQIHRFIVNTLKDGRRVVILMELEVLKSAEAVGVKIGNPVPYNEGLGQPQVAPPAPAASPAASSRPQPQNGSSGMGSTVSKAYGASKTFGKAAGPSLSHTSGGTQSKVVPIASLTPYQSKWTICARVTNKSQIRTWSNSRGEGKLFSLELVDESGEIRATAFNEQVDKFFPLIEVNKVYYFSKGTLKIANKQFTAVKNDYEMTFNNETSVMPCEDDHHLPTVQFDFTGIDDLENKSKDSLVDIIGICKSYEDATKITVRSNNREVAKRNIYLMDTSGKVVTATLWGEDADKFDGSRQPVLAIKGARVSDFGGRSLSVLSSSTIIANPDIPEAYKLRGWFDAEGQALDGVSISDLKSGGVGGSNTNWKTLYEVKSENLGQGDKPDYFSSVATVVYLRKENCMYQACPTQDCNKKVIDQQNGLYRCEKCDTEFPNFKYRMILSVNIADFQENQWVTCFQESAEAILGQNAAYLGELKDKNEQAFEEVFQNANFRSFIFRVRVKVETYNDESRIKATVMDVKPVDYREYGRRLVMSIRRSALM
T1 sequence (P15927 whole entry, chain 2 of 3): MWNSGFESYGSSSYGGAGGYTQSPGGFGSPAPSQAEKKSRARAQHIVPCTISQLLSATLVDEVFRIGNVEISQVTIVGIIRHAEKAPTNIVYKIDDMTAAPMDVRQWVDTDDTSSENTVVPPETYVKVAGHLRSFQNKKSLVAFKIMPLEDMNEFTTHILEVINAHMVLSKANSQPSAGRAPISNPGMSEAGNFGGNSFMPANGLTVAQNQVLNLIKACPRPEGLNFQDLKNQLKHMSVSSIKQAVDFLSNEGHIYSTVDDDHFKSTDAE
T1 sequence (P35244 whole entry, chain 3 of 3): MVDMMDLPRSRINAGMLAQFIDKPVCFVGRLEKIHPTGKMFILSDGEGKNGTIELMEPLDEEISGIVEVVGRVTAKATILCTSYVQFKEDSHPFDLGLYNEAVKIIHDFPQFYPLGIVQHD
Chain of UniProt P27694 (P27694 whole entry, one chain of several): as the sequence (P27694 whole entry, chain 1 of 3) above
Chain of ZUP1;RPA complex WT (RPA70/RPA32/RPA14) (P27694 whole entry, chain 2 of 3): as the sequence (P27694 whole entry, chain 1 of 3) above
Chain of ZUP1;RPA complex WT (RPA70/RPA32/RPA14) (P15927 whole entry, chain 3 of 3): as the sequence (P15927 whole entry, chain 2 of 3) above
Chain of ZUP1;RPA complex WT (RPA70/RPA32/RPA14) (P35244 whole entry, chain 4 of 3): as the sequence (P35244 whole entry, chain 3 of 3) above

B1: ZUP1 C360A (catalytically inactive mutant of full length ZUP1) (enzyme)
chain: MLSCNICGETVTSEPDMKAHLIVHMESEIICPFCKLSGVNYDEMCFHIETAHFEQNTLERNFERINTVQYGTSDNKKDNTLQCGMEVNSSILSGCASNHPKNSAQNLTKDSTLKHEGFYSENLTESRKFLKSREKQSSLTEIKGSVYETTYSPPECPFCGKIEEHSEDMETHVKTKHANLLDIPLEDCDQPLYDCPMCGLICTNYHILQEHVDLHLEENSFQQGMDRVQCSGDLQLAHQLQQEEDRKRRSEESRQEIEEFQKLQRQYGLDNSGGYKQQQLRNMEIEVNRGRMPPSEFHRRKADMMESLALGFDDGKTKTSGIIEALHRYYQNAATDVRRVWLSSVVDHFHSSLGDKGWGAGYRNFQMLLSSLLQNDAYNDCLKGMLIPCIPKIQSMIEDAWKEGFDPQGASQLNNRLQGTKAWIGACEVYILLTSLRVKCHIVDFHKSTGPLGTHPRLFEWILNYYSSEGEGSPKVVCTSKPPIYLQHQGHSRTVIGIEEKKNRTLCLLILDPGCPSREMQKLLKQDIEASSLKQLRKSMGNLKHKQYQILAVEGALSLEEKLARRQASQVFTAEKIP
For the molecule B1, the binding result in series [1] and in series [2] was “binds” in each case.

B2: Gap-26 (mixed)
DNA 1: CTATGGCGAGGCGATTATCAACCCATTTAGTCGTAATAGTGAAGAGTCACGACAACATCG
DNA 2: TAATCGCCTCGCCATAG
DNA 3: CGATGTTGTCGTGACTC
As to B2, the binding result in series [3] is reported as “binds”.

B3: GST-ZUP1 α-2/3-C78 (aa 272-578) (domain or fragment)
chain: SGGYKQQQLRNMEIEVNRGRMPPSEFHRRKADMMESLALGFDDGKTKTSGIIEALHRYYQNAATDVRRVWLSSVVDHFHSSLGDKGWGCGYRNFQMLLSSLLQNDAYNDCLKGMLIPCIPKIQSMIEDAWKEGFDPQGASQLNNRLQGTKAWIGACEVYILLTSLRVKCHIVDFHKSTGPLGTHPRLFEWILNYYSSEGEGSPKVVCTSKPPIYLQHQGHSRTVIGIEEKKNRTLCLLILDPGCPSREMQKLLKQDIEASSLKQLRKSMGNLKHKQYQILAVEGALSLEEKLARRQASQVFTAEKIP
On to B3, for which the binding result in series [4] is listed as “binds”.
